Experimental data from publication PMC6441084, “The formin Drosophila homologue of Diaphanous2 (Diaph2) controls microtubule dynamics in colorectal cancer cells independent of its FH2-domain” (Scientific Reports, 2019).

Biological target: microtubules (MTs) polymerised from purified tubulin (Cytoskeleton, # T240) (UniProt P02550 1-451)
Experiment: cell-based or functional assay

rate of MT-polymerization (turbidity at 340 nm, no taxol; 2 µM tubulin, 0.2 µM Diaph2 protein), fold against the buffer control [fold] | Binder
40 | full-length (FL) Diaph2 (Drosophila homologue of Diaphanous2), GST-fusion protein (natural protein, human, UniProt O60879 1-1101, looked up) MEQPGAAASGAGGGSEEPGGGRSNKRSAGNRAANEEETKNKPKLNIQIKTLADDVRDRITSFRKSTVKKEKPLIQHPIDSQVAMSEFPAAQPLYDERSLNLSEKEVLDLFEKMMEDMNLNEEKKAPLRNKDFTTKREMVVQYISATAKSGGLKNSKHECTLSSQEYVHELRSGISDEKLLNCLESLRVSLTSNPVSWVNNFGHEGLGLLLDELEKLLDKKQQENIDKKNQYKLIQCLKAFMNNKFGLQRILGDERSLLLLARAIDPKQPNMMTEIVKILSAICIVGEENILDKLLGAITTAAERNNRERFSPIVEGLENQEALQLQVACMQFINALVTSPYELDFRIHLRNEFLRSGLKTMLPDLKEKENDELDIQLKVFDENKEDDLTELSHRLNDIRAEMDDMNEVYHLLYNMLKDTAAENYFLSILQHFLLIRNDYYIRPQYYKIIEECVSQIVLHCSGMDPDFKYRQRLDIDLTHLIDSCVNKAKVEESEQKAAEFSKKFDEEFTARQEAQAELQKRDEKIKELEAEIQQLRTQAQVLSSSSGIPGPPAAPPLPGVGPPPPPPAPPLPGGAPLPPPPPPLPGMMGIPPPPPPPLLFGGPPPPPPLGGVPPPPGISLNLPYGMKQKKMYKPEVSMKRINWSKIEPTELSENCFWLRVKEDKFENPDLFAKLALNFATQIKVQKNAEALEEKKTGPTKKKVKELRILDPKTAQNLSIFLGSYRMPYEDIRNVILEVNEDMLSEALIQNLVKHLPEQKILNELAELKNEYDDLCEPEQFGVVMSSVKMLQPRLSSILFKLTFEEHINNIKPSIIAVTLACEELKKSESFNRLLELVLLVGNYMNSGSRNAQSLGFKINFLCKIRDTKSADQKTTLLHFIADICEEKYRDILKFPEELEHVESASKVSAQILKSNLASMEQQIVHLERDIKKFPQAENQHDKFVEKMTSFTKTAREQYEKLSTMHNNMMKLYENLGEYFIFDSKTVSIEEFFGDLNNFRTLFLEAVRENNKRREMEEKTRRAKLAKEKAEQEKLERQKKKKQLIDINKEGDETGVMDNLLEALQSGAAFRDRRKRIPRNPDNRRVPLERSRSRHNGAISSK
4 | FH2-domain of Diaph2 (aa 624-1049), GST-fusion protein (domain or fragment, human, UniProt O60879 624-1049, looked up) YGMKQKKMYKPEVSMKRINWSKIEPTELSENCFWLRVKEDKFENPDLFAKLALNFATQIKVQKNAEALEEKKTGPTKKKVKELRILDPKTAQNLSIFLGSYRMPYEDIRNVILEVNEDMLSEALIQNLVKHLPEQKILNELAELKNEYDDLCEPEQFGVVMSSVKMLQPRLSSILFKLTFEEHINNIKPSIIAVTLACEELKKSESFNRLLELVLLVGNYMNSGSRNAQSLGFKINFLCKIRDTKSADQKTTLLHFIADICEEKYRDILKFPEELEHVESASKVSAQILKSNLASMEQQIVHLERDIKKFPQAENQHDKFVEKMTSFTKTAREQYEKLSTMHNNMMKLYENLGEYFIFDSKTVSIEEFFGDLNNFRTLFLEAVRENNKRREMEEKTRRAKLAKEKAEQEKLERQKKKKQLIDINKE
